Here are results for 2 molecules from PMC8667049.

The target in series [1] is T1, GST-IRP2 (Homo sapiens, UniProt P48200 1-963).
T1 sequence: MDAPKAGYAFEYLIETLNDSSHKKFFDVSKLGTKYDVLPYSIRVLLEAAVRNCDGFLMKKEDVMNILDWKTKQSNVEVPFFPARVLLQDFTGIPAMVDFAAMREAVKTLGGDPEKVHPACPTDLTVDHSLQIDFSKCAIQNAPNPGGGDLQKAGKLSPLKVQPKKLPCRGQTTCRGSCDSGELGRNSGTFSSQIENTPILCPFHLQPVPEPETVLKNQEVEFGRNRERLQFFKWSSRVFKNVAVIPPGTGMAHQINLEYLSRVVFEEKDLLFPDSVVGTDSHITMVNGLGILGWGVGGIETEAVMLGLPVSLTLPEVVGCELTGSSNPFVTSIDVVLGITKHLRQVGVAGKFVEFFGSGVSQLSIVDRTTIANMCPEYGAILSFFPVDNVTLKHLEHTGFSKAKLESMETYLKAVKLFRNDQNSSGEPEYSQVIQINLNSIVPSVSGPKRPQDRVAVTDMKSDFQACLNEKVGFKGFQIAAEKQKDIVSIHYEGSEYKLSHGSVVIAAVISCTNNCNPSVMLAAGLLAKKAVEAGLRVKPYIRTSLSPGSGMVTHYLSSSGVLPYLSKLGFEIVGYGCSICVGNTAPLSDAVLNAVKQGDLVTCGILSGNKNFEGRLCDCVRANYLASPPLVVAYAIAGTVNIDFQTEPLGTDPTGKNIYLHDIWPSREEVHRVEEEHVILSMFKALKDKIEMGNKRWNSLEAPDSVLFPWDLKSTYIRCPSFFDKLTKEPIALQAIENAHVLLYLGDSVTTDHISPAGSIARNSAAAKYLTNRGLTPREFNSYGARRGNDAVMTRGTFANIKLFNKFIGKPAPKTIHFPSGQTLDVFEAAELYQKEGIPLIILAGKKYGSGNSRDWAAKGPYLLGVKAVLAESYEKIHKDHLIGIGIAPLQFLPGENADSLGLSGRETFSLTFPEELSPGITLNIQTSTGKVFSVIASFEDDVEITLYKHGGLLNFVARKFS
As to the kind of experiment: EMSA.

Series [2] deals with T2, GST-IRP1 (Homo sapiens, UniProt P21399 1-889).
T2 sequence: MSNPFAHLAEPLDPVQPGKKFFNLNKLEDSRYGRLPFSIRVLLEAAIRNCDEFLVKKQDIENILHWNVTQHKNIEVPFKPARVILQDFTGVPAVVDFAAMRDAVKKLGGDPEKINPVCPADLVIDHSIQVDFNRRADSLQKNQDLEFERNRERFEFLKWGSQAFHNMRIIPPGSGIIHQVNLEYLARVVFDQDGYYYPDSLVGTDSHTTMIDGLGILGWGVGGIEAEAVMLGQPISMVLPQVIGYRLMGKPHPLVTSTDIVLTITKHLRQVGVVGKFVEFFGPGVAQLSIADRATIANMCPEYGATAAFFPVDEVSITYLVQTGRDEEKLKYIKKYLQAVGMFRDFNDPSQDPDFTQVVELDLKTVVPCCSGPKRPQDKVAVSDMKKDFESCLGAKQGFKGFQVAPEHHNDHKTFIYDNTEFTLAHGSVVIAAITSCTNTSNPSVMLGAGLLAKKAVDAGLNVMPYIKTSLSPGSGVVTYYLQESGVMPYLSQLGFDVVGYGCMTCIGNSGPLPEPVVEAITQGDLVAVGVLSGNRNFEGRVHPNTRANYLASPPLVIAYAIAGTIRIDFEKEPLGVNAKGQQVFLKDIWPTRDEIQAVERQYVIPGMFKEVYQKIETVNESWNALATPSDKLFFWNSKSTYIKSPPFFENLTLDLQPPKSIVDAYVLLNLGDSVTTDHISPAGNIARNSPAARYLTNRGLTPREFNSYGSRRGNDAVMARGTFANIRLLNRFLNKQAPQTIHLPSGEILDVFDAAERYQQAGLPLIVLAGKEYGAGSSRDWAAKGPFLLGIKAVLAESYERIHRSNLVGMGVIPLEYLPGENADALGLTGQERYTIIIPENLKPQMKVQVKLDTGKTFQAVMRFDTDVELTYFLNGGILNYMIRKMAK
Nature of the series: EMSA.

Consider CCUGGUUUUUAAGGAGUGUCGCCAGAGUGCCGCGAAUGAAAAA (ssRNA) [non-IRE control RNA], for which the binding result in series [1] and in series [2] was “no binding” each time.

Regarding GAGGGGGCUUGCACAGAGUUGGAGCCAGAGG (structured_RNA) [CD63 5' UTR IRE], the binding result in series [1] and in series [2] was “binds” in each case.
